Target: complex III dimer (CIII2, cytochrome bc1 complex) of Tetrahymena thermophila (Tetrahymena thermophila (endogenous))
Experiment: cryo-EM structure

stoichiometry N: 2
Substance: complex III dimer (CIII2, cytochrome bc1 complex) of Tetrahymena thermophila

— publication doi:10.1101/2022.06.26.497646
